“Also recorded” adds a separate entry of the source.
Key:
mouse OPN protein = biological target: T1, mouse OPN protein (Mus musculus, UniProt P10923); assay: Western blot of 1A12 against mouse OPN protein; type: binding
T1 construct: made in house; host or cells: Pichia (yeast), culture supernatant
Protocol: (§1) 100 ug human OPN and an equal volume of Freund's adjuvant were emulsified, and injected intraperitoneally into BALB/C mice. Boost was given every two weeks at the same dose. […] The mouse spleen lymphocytes were fused with NS-1 cells using the classic PEG method. 96-well plate coated with 10 μg/ml human OPN was used for repeated screening by ELISA method to obtain hybridoma cell line 1A12 which was capable of stably expressing anti-human OPN antibody. The strain of 1A12 was amplified, and administrated to BALB/C mice in 5×10^6 cells/mouse (i.p.). The ascites was collected from the 10th day after the injection. The anti-human OPN monoclonal antibody was purified by affinity chromatography using protein A column.

rabbit cornea = assay: OPN-induced rabbit corneal neovascularization; type: in vivo; conditions: pellet with 200 ng hOPN and 1 μg antibody
Protocol: The Hydron powder was dissolved in anhydrous ethanol under sterile condition to the final concentration of 12% (w/v), and dissolved with agitation under 37° C. to formulate the 12% Hydron cast solution, which was then stored at room temperature. A quota of sucralfate powder formulated in sterile Milli Q water under sterile conditions as a suspension with the final concentration of 100 μg/μl, which was stored at 4° C., and vortexed to homogeneous intermediately before use. Sustained-release pellets were prepared to each containing 200 ng hOPN and 50 μg sucralfate and, for the antibody groups, 1 μg anti-OPN antibodies, and for the control, the irrelevant antibody. The 12% Flydron east solution and the hOPN-sucralfate-PBS blend were mixed as the ratio of 1:1 (volume ratio), vortexed for 1 min. Then 5 μl mixed Hydron-sucralfate-hOPN solution was added onto a sterilized Parafilm surface, dried for about 30 min on a super-clean bench for a complete polymerization. The polymers were then shaped into uniform circular granules with a 2 mm diameter using an eye tweezers. The granules were stored at −20′C. Animals were grouped in the same way as in Experiment II-3, each group consisting of four eyes.
The rabbit was anesthetized at ear edge vein with 3% sodium pentobarbital (1 ml/kg body weight) and on both corneal surfaces with 1% tetracaine. The thickness of the cornea was measured using an ultrasonic cornea thickness gauge. A 3 mm half-depth incision was made at the center of the cornea using an ophthalmic knife, and an undermining tunnel toward the 12 o'clock or 3 o'clock position on the corneoscleral margin was made using a 2 mm-wide scleral tunnel knife, whereby the tunnel lied within the corneal layer with the top of the tunnel about 1 mm distant from the limbus corneae. The Hydron/sucralfate sustained-release pellet was implanted into the top of tunnel using micro-tweezers. The cuts were treated with chlortetracycline eye ointment after the surgery. From Day 1 after the surgery, the double-blinded observer observed the rabbit conical neovascularization under the slit-lamp each day, until the Day 10, The length (VL) and the vascular clock angle (CN, 30°=1CN) of the longest vessel were measured, and the area of neovascularization was calculated according to the following formula:
Area (mm^2)=0.2×π×VL (mm)×CN (mm)

[1] = system: chicken embryo chorioallantoic membrane (CAM); assay: Chicken embryo chorioallantoic membrane (CAM) angiogenesis assay; type: in vivo; conditions: human OPN 250 ng + antibody 1 μg; P<0.01
Protocol: The Leghorn chicken embryos were purchased from the farm with a fertilization rate of >90%. The 8-day old chicken embryos were selected. After sterilization, a small hole was drilled in the center of the top air chamber of the embryo with a lancet, the surrounding shell with the inner membrane was removed with caution to create an opening of 1 cm×1 cm. Then the following analytes/gelatin sponge were added to the CAM surface: i) PBS; ii) HOPN; iii) human OPN (250 ng); iv) human OPN (250 ng)+the irrelevant antibody as control (1 μg); v) human OPN (250 ng)+the murine anti-OPN antibody 1A12 (1 μg); vi) human OPN (250 ng)+the murine-human chimeric anti-OPN antibody c1A12 (1 μg); vii) human OPN (250 ng)+the humanized anti-OPN antibody h1A1.2 (1 μg).
The analytes/gelatin sponge were added to the CAM surface, which was far away from the already-formed dense vascular network. […] The number of vessels within an area edging 2 mm from the edges of the carrier slide was counted under a dissecting microscope to study the angiogenesis using the “vascular index” (Ribatti, D., B. Nico, A. Vacca et al., The gelatin sponge-chorioallantoic membrane assay. Nat Protoc, 2006, 1 (1): 85-91). The number of vessel was counted at the same magnification under the dissecting microscope. The result in each sample group was expressed as “mean±standard deviation (x±S)”. […]

MDA-MB-435s cells [2] = assay: Microvessel density (MVD) in tumor, CD31 staining; type: in vivo, nude mice; conditions: P<0.01
Protocol: The tissue of the in situ tumor in mouse was isolated, and speed-frozen in liquid nitrogen. 8 um serial sections were made in a constant cold box frozen section machine, and dried for 5 min, before being fixed with acetone at −20° C. for 30 min, and then stained with IHC. Incubation with the rat anti-mouse monoclonal antibody CD31 (working concentration 1:100) was carried out at 4′C overnight. The secondary antibody was goat anti-rat IgG/PE (working concentration 1:100). After Hochest33258 contrast stain, photographs were taken under the fluorescence microscope.
The CD31 protein was mainly expressed on the membrane of the vascular endothelial cells, and was expressed in individual vascular endothelial cells and microvessel, intra-tumor microvessel could be visualized with an anti CD31 antibody (FIG. 16).

human OPN protein = biological target: T2, human OPN protein (Homo sapiens, UniProt P10451); assay: Western blot of 1A12 against human OPN protein; type: binding
T2 construct: made in house; host or cells: Pichia (yeast), culture supernatant
Protocol: as §1

MDA-MB-435s cells [3] = assay: Cell adhesion assay on hOPN-coated plate; type: cell-based; conditions: antibody 25 μg/ml; plate coated with 10 μg/ml hOPN; 2 hrs
Protocol: MDA-MB-435s was purchased from the Institute of Cell Biology of Chinese Academy of Sciences (Shanghai, China), and 23C3D3 was used as the irrelevant antibody.
A 96-well plate (Greiner) was coated with 10 μg/ml hOPN (prepared in Example 3) or BSA (SIGMA) at 4° C. overnight, and was then blocked with 1% BSA/PBS at 37° C. for 1 hour to block any non-specific binding sites. The MDA-MB-435s cells were detached using 0.2% EDTA and then re-suspended in 0.25% BSA/DMEM at the concentration of 5×10^5 cells/ml. To each well, 100 μl (5×10^4) MDA-MB-435s cells were added in the presence of various anti-OPN antibodies (25 μg/ml) murine anti-human OPN antibody 1A12, the human-murine chimeric antibody c 1A12 or the humanized antibody h1A12 as treatment groups and the irrelevant antibody 23C3 as control (25 μg/ml). After incubation at 37° C. for 2 hrs, the medium was removed and washed twice with PBS gently. The adherent cells were fixed in 1% formaldehyde at 4° C. for 10 minutes, stained with 0.5% crystal violet after washed with PBS and lysed with 2% Triton X-100 (50 μl). The absorbance was measured at 595 nm.

[4] = relative to irrelevant antibody group, P<0,01

T1 sequence (P10923 17-294): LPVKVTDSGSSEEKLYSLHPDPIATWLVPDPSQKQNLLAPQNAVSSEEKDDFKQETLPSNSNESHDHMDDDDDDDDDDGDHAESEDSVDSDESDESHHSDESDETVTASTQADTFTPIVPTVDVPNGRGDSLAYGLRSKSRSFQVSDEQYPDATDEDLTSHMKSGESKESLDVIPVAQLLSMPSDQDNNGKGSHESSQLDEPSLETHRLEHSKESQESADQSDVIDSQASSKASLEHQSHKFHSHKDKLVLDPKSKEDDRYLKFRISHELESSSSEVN
T2 sequence (P10451 17-314): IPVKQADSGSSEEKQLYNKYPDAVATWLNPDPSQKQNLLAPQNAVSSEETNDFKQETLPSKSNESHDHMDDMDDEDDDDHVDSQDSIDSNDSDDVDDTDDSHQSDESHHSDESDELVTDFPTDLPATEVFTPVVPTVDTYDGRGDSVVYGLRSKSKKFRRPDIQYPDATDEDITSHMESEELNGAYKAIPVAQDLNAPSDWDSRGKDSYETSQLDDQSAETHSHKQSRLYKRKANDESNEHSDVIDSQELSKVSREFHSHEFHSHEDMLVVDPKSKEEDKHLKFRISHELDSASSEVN

B1: 1A12: murine anti-hOPN mAb; VH SEQ ID NO: 4, VL SEQ ID NO: 6; from hybridoma 1A12 (antibody, V domains shown)
VH: QVQLEQSGPELVKPGASVKMSCKSSGYTFTTYVMHWVKQKPGQGLEWIGYINPYNDGSKYNEKFKGKATLTSDKSSNTAYMELSSLTSEDSAVYYCASHYGGSPAYWGQGTLVTVSA
VL: DILMTQTPLSLPVSLGDQASISCRSSQSLVHSNGNTYLHWYLQKPGQSPKLLIYKVSNRFSGVPDRFSGSGSGTDFTLKISRVEAEDLGVYFCSQSTHVPWTFGGGTKLEIKR
modifications: amino acid sequence of the heavy chain variable region in 1A12; amino acid sequence of the light chain variable region in 1A12
notes: murine anti-hOPN mAb; from hybridoma 1A12
Mouse OPN protein
  cross-reaction with the mouse OPN protein: cross-reacted
Rabbit cornea
  corneal neovascularization relative to the OPN group: significantly reduced
Rabbit cornea; [4]
  area of neovascularization: significantly shrunk
  length of the newly generated blood vessels: significantly reduced
[1]
  inhibition of OPN-induced angiogenesis in CAM: significantly inhibit
MDA-MB-435s cells [2]
  microvessel density (MVD) in tumor versus irrelevant control: significantly less; also recorded: effectively inhibit
Human OPN protein
  binding to the human OPN protein: specifically bound
MDA-MB-435s cells [3]
  blocking of the binding between MDA-MB-435s cells and hOPN: effectively block
